Source: the supplement of paper PMC10567573
± gives the standard deviation.

Experiment: protein stability index of a GFP-peptide fusion (GPS, HEK-293T) (PSI 1-6); higher = more stable
Settings: c terminus: a fixed tail appended
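Also: 24-mer peptide tiles fused after GFP, lentivirally expressed, FACS-sorted into six equal bins by GFP/DsRed ratio, decoded by Illumina sequencing, PSI is the read-weighted mean bin number.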

| Sequence | protein stability index (treatment: DMSO) | protein stability index (treatment: MLN4924 1 uM, 8 h) |
| --- | --- | --- |
| FRGQILGFWEEERPFWEEEKTFWK [CCDC70] | 2.25 ± 0.33 | 2.28 ± 0.31 |
| APLLPHITATSLLGTRESDTEVIT [BCL2L13] | 4.58 ± 0.26 | 4.47 ± 0.2 |
| YQVAALQGDLASLRAELQGHHAEK [TNFSF13B] | 3.71 ± 0.14 | 3.88 ± 0.099 |
| PEVLDRESRDRPSCAPSASIPKLK [PWWP2B] | 5.04 ± 0.21 | 5.25 ± 0.15 |
| FMEFYQDVKDWWLFGFYFCMPLVC [EDNRA] | 3.155 ± 0.026 | 3.2 ± 0.56 |
| YVRPERLSPISHGNTIALFFRSLL [TCF25] | 2.59 ± 0.4 | 2.71 ± 0.42 |
| GGDEVDDSVSVNDIDLSLYIPRDV [ZC3H15] | 4.62 ± 0.13 | 4.45 ± 0.61 |
| TRQNGIQTNKPALRAVRQRSEFTL [STX5] | 3.19 ± 0.32 | 3.37 ± 0.39 |
| TWMLEVCEEQKCEEEVFPLAMNYL [CCND2] | 2.84 ± 0.23 | 2.89 ± 0.3 |
| ECEEGELSFYDAERHCHLYTFHAR [TRIM35] | 3.18 ± 0.27 | 3.21 ± 0.24 |
| MPPQPGIPQQQGMRPPMPPHGQYG [ZNF207] | 4.31 ± 0.2 | 4.43 ± 0.11 |
| LHDIFENKTDVVLILELVSGGELF [DAPK3] | 1.87 ± 0.37 | 2.39 ± 0.58 |
| TLPEYRVSVPENLPVGTQLLTVTA [PCDHGA10] | 3.36 ± 0.29 | 3.24 ± 0.3 |
| GLERRDWSPSPPATPEQGLSAFYL [SPDEF] | 3.03 ± 0.25 | 2.84 ± 0.15 |
| SPPVMVAGGRVFVLPCIQQIQRIS [FLOT1] | 2.15 ± 0.5 | 1.96 ± 0.27 |
| DVSLPRGAFPPRGPRPVQSVVPEM [CDK4] | 4.01 ± 0.33 | 3.94 ± 0.33 |
| DLPPPPADPVLDLPLPPPPPEPLS [APBB1IP] | 5.39 ± 0.3 | 5.33 ± 0.18 |
| ERSRDVVDEVSVSLRLWDTFGDHH [RHOBTB1] | 3.27 ± 0.2 | 3.32 ± 0.31 |
| RPNSRHTPSFSGDSSSSCSDHCIT [VDR] | 4.52 ± 0.086 | 4.45 ± 0.25 |
| AALELLPRELFPPLFMAAFDGRHS [PRAME] | 2.27 ± 0.38 | 2.4 ± 0.18 |
| TMTSSQSMNFSMMSTNTVGLGLPM [CLINT1] | 3.02 ± 0.18 | 2.68 ± 0.083 |
| PNAQYWSQFHSVRPQGPQLRQQQH [DNAJC4] | 3.62 ± 0.14 | 3.76 ± 0.29 |
| SRSNSRSRSYSPRRSRGSPRYSPR [SRSF1] | 5.28 ± 0.26 | 5.56 ± 0.065 |

| Sequence | protein stability index (treatment: DMSO) | protein stability index (treatment: MLN4924 1 uM, 8 h) |
| --- | --- | --- |
| CDQYSCALTGPVVDIVTGHARLSD [DHCR7] | 3.57 ± 0.25 | 3.71 ± 0.17 |
| PDTQENRRMFSSLFQFSNCSQGQQ [CCDC3] | 3.67 ± 0.19 | 3.51 ± 0.17 |
| CKGRDHGVLDALHVLEGLFRTDPE [ZSWIM9] | 2.8 ± 0.05 | 2.81 ± 0.26 |
| ATLCLEFLLQNDANPSIRDKEGYN [ANKRD44] | 2.61 ± 0.26 | 2.73 ± 0.074 |
| MEDSPLPDLRDIELKLGRKVPESL [LURAP1L] | 4.68 ± 0.2 | 4.63 ± 0.23 |
| VGGATLAQTTSEAAMEGATLDQTT [HDAC6] | 5.44 ± 0.11 | 5.39 ± 0.26 |
| STYRKRTPVMEGYVEVKEGKTWKQ [LOXL2] | – | 3.92 ± 0.2 |
| QVNRRSAKGNTALHDCAESGSLEI [FEM1A] | 4.56 ± 0.049 | 4.26 ± 0.21 |
| RAWSQCGGGGLRAWSQRSAAGRVC [CPOX] | 2.71 ± 0.077 | 2.88 ± 0.37 |
| ELLTCHSAEYVGHLRATEKMKTRE [HDAC6] | 3.82 ± 0.1 | – |
| VAERKYTQEQARKEFQQVFIPECN [SMOC2] | 4.38 ± 0.19 | 4.41 ± 0.23 |
| LFLGQGIQVSLYCQEWYARRHCPL [SOAT2] | 2.83 ± 0.46 | 2.57 ± 0.46 |
| ELRFLLVYLHGDDHQDSDEFCRNT [FAF2] | 2.29 ± 0.23 | 2.43 ± 0.32 |
| VVKLENGEIETIARFGSGPCKTRD [APMAP] | 3.77 ± 0.16 | 3.72 ± 0.31 |
| SSTQLCVLNDRFQRQKYLSLQQMQ [NANOGP8] | 2.65 ± 0.14 | 2.83 ± 0.1 |
| RNGHAKVVRLLLEHYRVQTQQTGT [FEM1B] | 2.32 ± 0.21 | 2.3 ± 0.28 |
| ELADHIERLKANDNLKFSQEYESI [PTPRD] | 3.48 ± 0.25 | 3.74 ± 0.28 |
| VISLLNEPNTFSPANVDASVMFRK [UBE2R2] | 2.79 ± 0.31 | 3.04 ± 0.2 |
| KSVMLQIAATELEKEESRREAEKQ [TNNI2] | 5.07 ± 0.092 | 5.25 ± 0.26 |
| ETLDYGKNYNYGMHYCAVPPRGPL [NEUROD6] | 2.65 ± 0.31 | 2.68 ± 0.14 |
| WEEEEDHEKERPEHKSLESLADGG [FANCE] | 5.46 ± 0.34 | 5.53 ± 0.19 |
| QLDALPFFVITMIKIVLINSFGAI [SLC29A1] | 2.96 ± 0.54 | 3.31 ± 0.17 |
